Here are results for three molecules from patent US20050032689A1, “Methods for treatment or diagnosis of disease or disorders associated with an APB domain” (New York University, priority 1994, published 2005).

Test [1] addresses T1, binding of Shc 1-209 to the EGF receptor (Mus musculus, UniProt P98083).
T1 construct: we generated Shc 1-209 as a GST fusion protein; made in house; host or cells: bacteria (pGSTag vector)
T1 sequence (P98083 111-319): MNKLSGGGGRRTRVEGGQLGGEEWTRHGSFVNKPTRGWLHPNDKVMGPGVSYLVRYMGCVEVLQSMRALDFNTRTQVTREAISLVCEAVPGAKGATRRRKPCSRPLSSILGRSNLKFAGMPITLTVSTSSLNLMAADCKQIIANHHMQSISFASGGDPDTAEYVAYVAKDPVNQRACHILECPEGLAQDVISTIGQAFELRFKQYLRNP
Briefly: Phosphotyrosine inhibition of Shc 1-209 binding to EGF receptor. The settings on record: 30 mM phosphotyrosine; results not shown. The text has this: (§1) Accordingly we examined the binding of the Shc amino terminus (hereafter referred to as Shc 1-209) in further detail. First we determined if the binding of Shc 1-209 was dependent on EGF receptor activation. To perform these studies we generated Shc 1-209 as a GST fusion protein and examined its ability to bind EGF receptor from lysates of NIH 3T3 cells. […] We asked if this binding was dependent on receptor autophosphorylation. EGF receptor was immunoprecipitated from unstimulated cells and then tyrosine-phosphorylated in vitro by adding Mn^2+ and ATP. […] To confirm that the binding was dependent on autophosphorylation, we examined the binding of Shc 1-209 to EGF receptor mutants lacking autophosphorylation sites. […] This may represent a difference in the affinity of interactions or a basic difference in the molecular mechanism of EGF receptor interaction with Shc 1-209 versus SH2 domains.

The target of test [2] is T2, binding of the Grb7 SH2 domain to EGF receptor (Mus musculus, UniProt Q03160).
T2 construct: made in house; host or cells: bacteria
Briefly: Phosphotyrosine inhibition of Grb7 SH2 domain binding to EGF receptor. The note with it: 30 mM phosphotyrosine; results not shown.
Excerpt: as §1

In the next test the target is T3, EGF receptor (Homo sapiens, UniProt P00533).
T3 construct: expressed in transfected cells; host or cells: HER14 (NIH 3T3 cells expressing human EGF receptor)
As to the kind of experiment: Binding of GST fusion proteins on glutathione-agarose beads to EGF receptor from HER14 cell lysates, immunoblot. The note with it: GST fusion protein, lysates of EGF-stimulated or unstimulated cells. The protocol: FIGS. 2A and 2B. Association of GST-Shc 1-209 with the EGF Receptor (EGFR). A, HER14 lysates from either EGF-stimulated (+) or unstimulated (−) cells (5×10^6 cells) were incubated with 3 μg of GST fusion protein immobilized on glutathione-agarose beads. The bound proteins were washed, subjected to SDS-PAGE, transferred to nitrocellulose and immunoblotted with anti-EGF receptor antibody, anti-C (anti-EGFR). HER14 lysate (4×10^5 cells) was run directly on the gel in lanes 5 and 6. B, unstimulated HER14 lysates (5×10^6 cells) were immunoprecipitated with anti-EGFR antibody (mAb 108). The immobilized receptor was then phosphorylated (+) by the addition of 5 mM MnCl2 and 50 μM ATP or left unphosphorylated (−) by adding MnCl2 alone. Bacterial lysates containing 5 μg of GST, GST-Grb7, and GST-Shc 1-209 were then diluted in 1 ml of 1% Triton X-100 lysis buffer, added to the immobilized receptor and incubated at 4° C. for 90 min. The bound proteins were washed and together with 40 μl of the post-binding supernatant separated by SDS-PAGE and transferred to nitrocellulose. The bound fractions (left panel) and supernatants (right panel) were immunoblotted with anti-GST. FIGS. 4A, 4B, 4C and 4D. Binding of Shc fragments to growth factor receptors. A, schematic diagram illustrating the Shc fragments used in binding studies. Full length murine p52^shc is indicated in (i) while (ii)-(vi) were generated as GST fusion proteins for use in receptor binding studies. B, association of various GST fusion proteins with activated EGF receptor (EGFR). Binding was performed as in FIG. 2A with the exception that all lysates were stimulated with EGF. All studies used 3 μg of fusion proteins except for the Shc SH2 where 10 μg was used. Immunoblotting was performed with anti-phosphotyrosine. C, binding of Shc fusion proteins to NIH 3T3 cells expressing a HER1/2 chimera. This chimera consists of the EGF receptor extracellular binding domain and the intracellular region of HER2/neu. After stimulation of these cells with EGF (200 ng/ml) lysates were prepared and binding as well as blotting studies were performed as in B using anti-phosphotyrosine antibody. D, binding of Shc 1-209 to TrkA. Beads containing 10 μg of GST fusion proteins Shc 1-209, phospholipase C-γ (PLC-γ) SH2 (contains both N and C SH2 domains), or GST alone were added to lysates from 2×10^7 PC12 cells stimulated with 50 ng/ml nerve growth factor (lanes 1, 2, and 4). The binding of the same amount of lysate to 2 μg of anti-TrkA antibody is shown as a positive control and to indicate the position of TrkA on the blot (lane 3). Otherwise, the binding and blotting were performed as in B using anti-phosphotyrosine antibody. […]
Background: Immunoblotting shows a protein as a band on a membrane.

Test [3] relates to HER2/neu (HER1/2 chimera). As to the kind of experiment: Binding of GST-Shc fusion proteins to HER1/2 chimera from NIH 3T3 lysates, anti-phosphotyrosine blot. The note with it: EGF-stimulated NIH 3T3 lysates. The protocol:
FIGS. 4A, 4B, 4C and 4D. Binding of Shc fragments to growth factor receptors. A, schematic diagram illustrating the Shc fragments used in binding studies. Full length murine p52^shc is indicated in (i) while (ii)-(vi) were generated as GST fusion proteins for use in receptor binding studies. B, association of various GST fusion proteins with activated EGF receptor (EGFR). Binding was performed as in FIG. 2A with the exception that all lysates were stimulated with EGF. All studies used 3 μg of fusion proteins except for the Shc SH2 where 10 μg was used. Immunoblotting was performed with anti-phosphotyrosine. C, binding of Shc fusion proteins to NIH 3T3 cells expressing a HER1/2 chimera. This chimera consists of the EGF receptor extracellular binding domain and the intracellular region of HER2/neu. After stimulation of these cells with EGF (200 ng/ml) lysates were prepared and binding as well as blotting studies were performed as in B using anti-phosphotyrosine antibody. D, binding of Shc 1-209 to TrkA. Beads containing 10 μg of GST fusion proteins Shc 1-209, phospholipase C-γ (PLC-γ) SH2 (contains both N and C SH2 domains), or GST alone were added to lysates from 2×10^7 PC12 cells stimulated with 50 ng/ml nerve growth factor (lanes 1, 2, and 4). The binding of the same amount of lysate to 2 μg of anti-TrkA antibody is shown as a positive control and to indicate the position of TrkA on the blot (lane 3). Otherwise, the binding and blotting were performed as in B using anti-phosphotyrosine antibody. […] Protein concentration was determined by SDS-PAGE (polyacrylamide gel electrophoresis) using bovine serum albumin as a standard. […]

T2 sequence (Q03160 434-530 limits assumed): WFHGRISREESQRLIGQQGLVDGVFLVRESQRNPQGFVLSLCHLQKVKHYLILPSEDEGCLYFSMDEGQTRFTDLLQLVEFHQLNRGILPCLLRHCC

Turning to `N[C@@H](Cc1ccc(OP(=O)(O)O)cc1)C(=O)O` [phosphotyrosine], in test [1], the “inhibition of binding of Shc 1-209 to the EGF receptor” value is on record as “partially inhibit”. In addition, the “inhibition of binding of the Grb7 SH2 domain to the EGF receptor” value in test [2] was “completely inhibited”.

B1: Shc 46-209: amino acids encoding the amino terminus of p46Shc, GST fusion protein (protein, UniProt P98083 46-209, looked up, fragment)
chain: LPPLPGDDSPTTLCSFFPRMSNLKLANPAGGRLGPKGEPGKAAEDGEGSAGAALRDSGLLPLLQDMNKLSGGGGRRTRVEGGQLGGEEWTRHGSFVNKPTRGWLHPNDKVMGPGVSYLVRYMGCVEVLQSMRALDFNTRTQVTREAISLVCEAVPGAKGATRRR
modifications: GST fusion
notes: amino acids encoding the amino terminus of p46Shc, GST fusion protein
Turning to B1, the “binding to EGF receptor” value in the test with EGF receptor was “can bind both EGF receptor and HER2/neu receptor”. The “binding to HER2/neu” value in test [3] is “can bind both EGF receptor and HER2/neu receptor”.

B2: Shc 85-209: Shc construct with a more severe amino-terminal deletion, GST fusion protein (protein, UniProt P98083 85-209, looked up, fragment)
chain: GKAAEDGEGSAGAALRDSGLLPLLQDMNKLSGGGGRRTRVEGGQLGGEEWTRHGSFVNKPTRGWLHPNDKVMGPGVSYLVRYMGCVEVLQSMRALDFNTRTQVTREAISLVCEAVPGAKGATRRR
modifications: GST fusion
notes: Shc construct with a more severe amino-terminal deletion, GST fusion protein
For the molecule B2, in the test with EGF receptor, the “binding to EGF receptor” value was “did not bind growth factor receptors”. Also, the “binding to HER2/neu” value in test [3] was “did not bind growth factor receptors”.
